The target of data set [1] is T1, ChroM1 DNA-binding domain recombinant protein (rP, residues 2333-2480) (Homo sapiens, UniProt Q3L8U1 SEQ:2333-2480).
T1 sequence: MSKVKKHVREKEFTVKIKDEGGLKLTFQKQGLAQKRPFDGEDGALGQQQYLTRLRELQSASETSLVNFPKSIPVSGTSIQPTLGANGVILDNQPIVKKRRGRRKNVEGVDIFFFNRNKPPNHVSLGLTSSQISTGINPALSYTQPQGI
Kind of data set: EMSA; 1-3 ug rP; binding increases with protein; abolished by 100x cold oligo; 26 mM Hepes pH 7.9, 2 mM MgCl2, 40 mM KCl, RT; strandedness of probe not stated. The conditions noted are these: label: 32P. Here is the method:
Electrophoretic mobility shift assay (EMSA): EMSA was performed between recombinant protein (rP) containing the DNA binding domain (residues 2333-2480 from sequence of ChroM1) and ³²P-labeled 32-mer oligonucleotide containing 24 A·T nucleotides, […] (SEQ ID NO:14). 1-3 μg of rP and 100,000 cpm of ³²P-labeled oligonucleotides were used for the binding reaction in the presence or absence of 100 fold excess cold oligonucleotide. The reaction was carried out in 20 μl of binding buffer (26 mM Hepes, pH 7.9, 2 mM MgCl₂, 40 mM KC1, 1 mM dithiothreitol and 0.25% BSA). The samples were incubated for 15 min at room temperature prior to loading in 5% native polyacrylamide gel in 0.25 Tris borate-EDTA (TBE). The gel was run for 40 min at RT and in TBE buffer. The gels were then dried and autoradiographed.

Data set [2] has as its target T1, ChroM1 DNA-binding domain recombinant …. Kind of data set: EMSA; binding reduced by distamycin A.

B1: A/T-rich 32-mer oligonucleotide (dsDNA)
DNA 1: GATCCATATATATATATATATATATATATGCA
DNA 2: TGCATATATATATATATATATATATATGGATC
B1: the binding result in data set [1] is “binds”.

B2: BMP4 distal promoter PCR fragment (145 bp) (dsDNA)
DNA 1: GCTAAAGGAGCACAATGCCTGATGCTGCAGGAGAAACATTAGGTAACTATTTAATGGAGTTTTAATTTTCTGTTATTATTTTTAATAATTAATTGTGATTTTGACTATTTGGAAGCTACAGGTATATTTTGTCCTCCTTTTGGGG
DNA 2: CCCCAAAAGGAGGACAAAATATACCTGTAGCTTCCAAATAGTCAAAATCACAATTAATTATTAAAAATAATAACAGAAAATTAAAACTCCATTAAATAGTTACCTAATGTTTCTCCTGCAGCATCAGGCATTGTGCTCCTTTAGC
For the molecule B2, the binding result in data set [2] was “binds”.

(Values after US20050250717, “Chromatin remodeling protein as a marker expressed by stromal progenitor cells” (Ramot AT Tel Aviv University Ltd., published 2005).)
